Source: patent US20180230212A1

How the values were obtained:
[1] = target: human CD98hc with incomplete glycosylation (cells treated with tunicamycin, thapsigargin or bortezomib) (human) (UniProt P08195); test: FACS on tunicamycin-treated THP-1 cells, MEM-108 at 2.5 µg/ml, PE anti-mouse IgG
[2] = target: human CD98hc as expressed on normal blood cells, HUVEC cells and untreated U937 / THP-1 cells (human CD98hc having an N-glycan) (human) (UniProt P08195); test: FACS on untreated U937 cells, MEM-108 at 2.5 µg/ml, PE anti-mouse IgG
[3] = target: human CD98hc as expressed on normal blood cells, HUVEC cells and untreated U937 / THP-1 cells (human CD98hc having an N-glycan) (human) (UniProt P08195); test: FACS on untreated THP-1 cells, MEM-108 at 2.5 µg/ml, PE anti-mouse IgG
[4] = target: human CD98hc with incomplete glycosylation (cells treated with tunicamycin, thapsigargin or bortezomib) (human) (UniProt P08195); test: FACS on tunicamycin-treated U937 cells, MEM-108 at 2.5 µg/ml, PE anti-mouse IgG

In the case of “MEM-108 antibody (anti-human CD98 antibody, Biolegend)”, the MFI (corrected value obtained by dividing with an isotype control) (MFI / MFI of isotype control) [1] is reported as 29.1, the MFI (corrected value obtained by dividing with an isotype control) (MFI / MFI of isotype control) [2] is reported as 11.8 and the MFI (corrected value obtained by dividing with an isotype control) (MFI / MFI of isotype control) [3] is reported as 29.4. For the same substance, the MFI (corrected value obtained by dividing with an isotype control) (MFI / MFI of isotype control) [4] was 8.3.
